Measured values published in patent US20220073608A1 (JIANGSU HUAIYU PHARMACEUTICAL, published 2022).
Positions count from the first letter of the chain named.

T1: mouse SEMA4D, full length, on CHO-K1 cells (CHO-K1 mSEMA4D) (mouse, UniProt O09126 24-861)
T1 construct: whole, on cells; also called murine SEMA4D recombinant cells
T1 sequence (looked up): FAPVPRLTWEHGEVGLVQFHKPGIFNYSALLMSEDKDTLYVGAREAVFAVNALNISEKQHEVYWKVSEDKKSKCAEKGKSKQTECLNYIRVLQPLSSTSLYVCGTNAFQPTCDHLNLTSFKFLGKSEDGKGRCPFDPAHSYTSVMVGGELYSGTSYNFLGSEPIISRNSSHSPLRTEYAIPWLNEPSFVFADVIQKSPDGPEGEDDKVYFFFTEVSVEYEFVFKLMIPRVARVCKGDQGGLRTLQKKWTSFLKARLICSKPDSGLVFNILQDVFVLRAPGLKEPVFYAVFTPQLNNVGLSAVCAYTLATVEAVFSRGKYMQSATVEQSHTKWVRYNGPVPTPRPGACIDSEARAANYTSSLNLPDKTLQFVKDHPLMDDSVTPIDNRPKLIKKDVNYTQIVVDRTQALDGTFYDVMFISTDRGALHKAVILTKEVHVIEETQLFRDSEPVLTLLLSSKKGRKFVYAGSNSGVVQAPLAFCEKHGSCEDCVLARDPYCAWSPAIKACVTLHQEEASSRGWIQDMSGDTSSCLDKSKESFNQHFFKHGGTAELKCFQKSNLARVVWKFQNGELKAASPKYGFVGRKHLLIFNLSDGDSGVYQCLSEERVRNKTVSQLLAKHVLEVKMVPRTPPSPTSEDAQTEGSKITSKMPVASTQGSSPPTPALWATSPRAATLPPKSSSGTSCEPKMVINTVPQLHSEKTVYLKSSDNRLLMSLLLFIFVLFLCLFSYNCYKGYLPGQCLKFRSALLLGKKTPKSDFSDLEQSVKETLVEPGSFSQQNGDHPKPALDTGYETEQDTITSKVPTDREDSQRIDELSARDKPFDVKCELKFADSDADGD

T2: human SEMA4D, full length, on CHO-K1 cells (CHO-K1 hSEMA4D) (human, UniProt Q92854 22-862)
T2 construct: whole, on cells; also called human SEMA4D recombinant cells
T2 sequence (looked up): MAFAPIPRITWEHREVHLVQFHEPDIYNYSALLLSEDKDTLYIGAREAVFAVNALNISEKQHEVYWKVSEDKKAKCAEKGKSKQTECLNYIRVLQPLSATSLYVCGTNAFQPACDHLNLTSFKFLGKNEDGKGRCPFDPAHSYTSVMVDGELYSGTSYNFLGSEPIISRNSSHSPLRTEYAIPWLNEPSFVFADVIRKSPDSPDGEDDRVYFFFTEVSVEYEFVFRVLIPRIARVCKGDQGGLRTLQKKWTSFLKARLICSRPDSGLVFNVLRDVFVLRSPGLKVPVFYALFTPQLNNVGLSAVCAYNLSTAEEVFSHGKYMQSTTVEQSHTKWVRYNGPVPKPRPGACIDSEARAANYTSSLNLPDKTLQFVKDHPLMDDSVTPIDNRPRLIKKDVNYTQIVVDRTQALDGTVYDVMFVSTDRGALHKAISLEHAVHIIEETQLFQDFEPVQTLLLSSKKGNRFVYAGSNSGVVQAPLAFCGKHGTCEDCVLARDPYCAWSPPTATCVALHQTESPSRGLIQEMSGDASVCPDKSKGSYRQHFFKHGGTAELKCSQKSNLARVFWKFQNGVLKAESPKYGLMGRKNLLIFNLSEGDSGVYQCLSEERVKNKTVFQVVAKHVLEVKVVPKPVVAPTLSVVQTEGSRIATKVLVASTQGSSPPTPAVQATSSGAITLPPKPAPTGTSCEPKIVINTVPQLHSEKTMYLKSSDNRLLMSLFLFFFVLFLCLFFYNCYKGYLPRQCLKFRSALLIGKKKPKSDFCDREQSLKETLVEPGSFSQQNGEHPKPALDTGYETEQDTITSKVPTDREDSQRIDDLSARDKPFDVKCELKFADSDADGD

B1: 42B7G2 (antibody, V domains shown)
VH: QVQLQQSGAELARPGASVKLSCKASGYTFTDYGISWVKQRTGQGLEWIGEIYLRNDNSYYNEKFKGKATLTADKSSNTAYMELRSLTSEDSAVYFCARWGDHGNNYEDAMDYWGQGTSVTVSS
VL: DIVLTQSPASLAMSLGKRATISCRASESVSIIGSNLIHWYQQKPGQPPKLLIYHASNLETGVPARFSGSGSRTDFTLTIDPVEEDDVAIYYCLQSRKVPYTFGGGTKLEIK
notes: Mouse monoclonal antibody purified from hybridoma supernatant on protein A
B2: 37C4F7 (antibody, V domains shown)
VH: EFQLQQSGPEVVKPGASVKISCKASGYSFTDYNMNWMKQSKGKSLEWIGVINPNYGTTTYNQNFKGKATLTVDQSSSTAYMQLNSLTSEDSAVYYCARDMYYVYAYYTMDYWGQGTSVTVSS
VL: DVVMTQTPLSLPVSLGDQASISCRSSQSLVHSNGHTYLHWYLQRPGQSPTLLIYKVSNRFSGVPDRFSGSGSGTDFTLKISRVEAEDLGVYFCSQGTHVPWTFGGGTKLEIK
notes: as for B1
B3: 38H2E3 (antibody, V domains shown)
VH: B2 VH with N52S, N54D, G66D, R98K, Q114H
VL: B2 VL with F67V, W101R
notes: as for B1
B4: 37F11F9 (antibody, V domains shown)
VH: EVQLQQSGPVLVKPGASVKMSCKASGYTFTDYYMNWVKQSHGKSLEWIGLINPYSGGSTFNQKFKAKATLTVDKSSSSAYMDLNSLTSEDSAVYYCARVGDGYYGVTHGMDYWGQGTSVTVSS
VL: DIVMTPSQKFMSTTVGDRVSITCKASQNVGTAVAWYQQKPGQSPTILIYSASNRYTGVPDRFTGSGSGTDFTLTISNMKSEDLADYFCQQYYIYPFTFAAGTKLELK
notes: as for B1
B5: 32C8F10 (antibody, V domains shown)
VH: EVQLQQSGAELVRPGASVKLSCTASGFNIKDEYIHWVKQRPEQGLEWIGWIDPANGHTEYASRFQAKATITADTSSNTAYLQLSSLTSEDTAVYYCTTGDYDGFAYWGQGTLVTVST
VL: QIVLTQSPAIMSASPGEKVTISCSARSSVSYMYWYQQKPGSSPKPWIYRTSNLASGVPARFSGSGSGTSYSLTISSMEAEDAATYYCQHYHTYPYTFGGGTKLEIK
notes: as for B1
B6: 31C11G2 (antibody, V domains shown)
VH: B5 VH with A105V
VL: B5 VL with S22F
notes: as for B1
B7: 31G10C5 (antibody, V domains shown)
VH: B5 VH with E32D, T58I, R63N, A105T
VL: B5 VL
notes: as for B1

Each binder was assayed against T1, mouse SEMA4D, full length, on CHO-K1 … (assay: FACS, CHO-K1 mSEMA4D cells; Ab 0.534 nM).
Experimental: After the cells were counted, they were diluted with PBS to 2×10⁶ cells per milliliter. After washing, 100 μL of diluted and purified leading antibodies was added to each well and the plate was incubated for 1 hour on ice. […] Cells were washed 2 times by centrifugation with FACS buffer. The cells were suspended with 200 μL of FACS buffer, FACS (FACS Verse, purchased from BD) was used to detect and analyze the results.

Row | MFI | Binder
1 | 31.7 | B1
2 | 29.2 | B2
3 | 29.5 | B3
4 | 30.9 | B4
5 | 29.8 | B5
6 | 30.7 | B6
7 | 30.3 | B7

Each binder was assayed against T2, human SEMA4D, full length, on CHO-K1 … (assay: competitive FACS, CHO-K1 hSEMA4D cells; unlabelled Ab 6 ug/mL first, competitor Alexa 488-VX15 0.67 ug/mL).
Excerpt: The purified hybridoma SEMA4D antibodies and fully human SEMA4D antibody were subjected to competitive flow cytometry (FACS) to analyze whether the epitopes bound by different antibodies competed with that bound by the reference antibody VX15.
The medium was aspirated, the cells were washed once with PBS buffer (purchased from Invitrogen), and then treated with cell dissociation fluid (TrypLE™ Express Enzyme, purchased from Life technology), and the cells were collected. After the cells counted, the cells were washed once with PBS phosphate buffer, and diluted to 3×10⁶ cells per milliliter, and added to the 96-well FACS reaction plate as 100 μL per well. 2% (w/w) fetal calf serum was added to PBS phosphate buffer as FACS buffer, with which the cells were washed once by centrifugation at 2000 rpm 4° C. 100 μL of the leading antibodies and IgG control diluted to a concentration of 6 μg/mL was added to each well and the plate was incubated for 1 hour on ice. […] Cells were washed 2 times by centrifugation with FACS buffer. The cells were suspended with 200 μL of FACS buffer, and FACS (FACS Verse, purchased from BD) was used to detect and analyze the results.

Row | inhibition rate (%) | Binder
8 | 15 | B1
9 | 20 | B2
10 | 21 | B3
11 | 25 | B4
12 | 42 | B5
13 | 44 | B6
14 | 42 | B7
